{
  "source": "patent US20190153410A1",
  "about": "(NOVOZYMES A S, published 2019)",
  "key": {"[1]": {"biological_target": "T1, propeptide of Rhizomucor miehei lipase (RmL propeptide)", "T1 chain": "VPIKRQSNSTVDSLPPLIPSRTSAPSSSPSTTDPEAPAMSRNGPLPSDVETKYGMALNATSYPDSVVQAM"}, "[2]": {"biological_target": "T2, RhimiLip1 (SEQ ID NO: 7)", "T2 chain": "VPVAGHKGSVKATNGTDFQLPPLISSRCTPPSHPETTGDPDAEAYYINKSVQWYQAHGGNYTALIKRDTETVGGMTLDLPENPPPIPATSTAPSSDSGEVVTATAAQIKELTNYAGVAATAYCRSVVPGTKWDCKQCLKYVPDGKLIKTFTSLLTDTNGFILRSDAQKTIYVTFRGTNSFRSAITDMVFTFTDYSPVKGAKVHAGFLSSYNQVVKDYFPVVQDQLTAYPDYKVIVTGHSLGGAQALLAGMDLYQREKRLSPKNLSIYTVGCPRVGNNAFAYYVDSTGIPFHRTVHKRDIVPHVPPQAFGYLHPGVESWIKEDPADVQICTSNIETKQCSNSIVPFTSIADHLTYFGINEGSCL", "experiment": "cell-based or functional assay"}, "[3]": {"biological_target": "T3, Rhizomucor miehei lipase (RmL) mature protein (Rhizomucor miehei, UniProt P19515 95-363)", "T3 sequence": "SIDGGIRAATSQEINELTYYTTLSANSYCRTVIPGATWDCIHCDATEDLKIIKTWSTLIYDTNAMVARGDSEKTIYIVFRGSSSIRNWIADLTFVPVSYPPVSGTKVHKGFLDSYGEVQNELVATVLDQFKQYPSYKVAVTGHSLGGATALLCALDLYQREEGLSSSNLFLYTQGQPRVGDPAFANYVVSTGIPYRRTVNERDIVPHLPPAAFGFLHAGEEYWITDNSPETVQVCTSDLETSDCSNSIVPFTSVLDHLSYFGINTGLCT", "experiment": "cell-based or functional assay"}, "[4]": {"biological_target": "T4, Lipex (SEQ ID NO: 5) (Thermomyces lanuginosus (Thermophilic …, UniProt O59952 23-291))", "T4 chain": "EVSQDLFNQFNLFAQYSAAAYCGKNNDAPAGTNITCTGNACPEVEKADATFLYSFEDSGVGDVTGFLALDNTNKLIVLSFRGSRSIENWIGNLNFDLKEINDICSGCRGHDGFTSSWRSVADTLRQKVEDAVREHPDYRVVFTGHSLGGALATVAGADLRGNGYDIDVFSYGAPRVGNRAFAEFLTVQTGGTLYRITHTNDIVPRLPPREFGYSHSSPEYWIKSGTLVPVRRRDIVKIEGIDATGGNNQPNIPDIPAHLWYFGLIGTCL", "experiment": "cell-based or functional assay"}, "[5]": {"biological_target": "T5, MuciLip2CN (SEQ ID NO: 6)", "T5 chain": "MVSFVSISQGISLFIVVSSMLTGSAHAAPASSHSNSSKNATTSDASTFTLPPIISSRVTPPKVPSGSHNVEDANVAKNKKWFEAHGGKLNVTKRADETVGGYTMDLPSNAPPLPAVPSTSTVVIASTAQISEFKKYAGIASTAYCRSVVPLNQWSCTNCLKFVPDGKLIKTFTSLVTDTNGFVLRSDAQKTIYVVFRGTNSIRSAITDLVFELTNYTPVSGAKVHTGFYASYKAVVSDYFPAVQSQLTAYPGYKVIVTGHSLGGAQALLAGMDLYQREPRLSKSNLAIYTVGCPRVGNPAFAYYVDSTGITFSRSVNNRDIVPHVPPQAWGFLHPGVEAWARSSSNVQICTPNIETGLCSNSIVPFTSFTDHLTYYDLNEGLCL", "experiment": "cell-based or functional assay"}},
  "data": [
    {"binder": "Rhizomucor miehei lipase (RmL) mature protein (protein) SIDGGIRAATSQEINELTYYTTLSANSYCRTVIPGATWDCIHCDATEDLKIIKTWSTLIYDTNAMVARGDSEKTIYIVFRGSSSIRNWIADLTFVPVSYPPVSGTKVHKGFLDSYGEVQNELVATVLDQFKQYPSYKVAVTGHSLGGATALLCALDLYQREEGLSSSNLFLYTQGQPRVGDPAFANYVVSTGIPYRRTVNERDIVPHLPPAAFGFLHAGEEYWITDNSPETVQVCTSDLETSDCSNSIVPFTSVLDHLSYFGINTGLCT", "values": [
      {"measurement": "hydrolytic activity on p-nitrophenyl acyl esters (C3, C6, C10, C12, C16), release of p-nitrophenol at 405 nm", "setting": "[1]", "result": "RmL with the propeptide bound showed no activity at any of the conditions tested"}
    ]},
    {"binder": "propeptide of Rhizomucor miehei lipase (RmL propeptide) (peptide) peptide: VPIKRQSNSTVDSLPPLIPSRTSAPSSSPSTTDPEAPAMSRNGPLPSDVETKYGMALNATSYPDSVVQAM", "values": [
      {"measurement": "RP(wash) with inhibitor, AMSA, propeptide:lipase 320:1 (normalized to no inhibitor = 1.00)", "setting": "[2]", "result": 0.92},
      {"measurement": "RP(wash) with inhibitor, AMSA, propeptide:lipase 320:1 (normalized to no inhibitor = 1.00)", "setting": "[3]", "result": 0.02},
      {"measurement": "RP(wash) with inhibitor, AMSA, propeptide:lipase 320:1 (normalized to no inhibitor = 1.00)", "setting": "[4]", "result": 0.89},
      {"measurement": "RP(wash) with inhibitor, AMSA, propeptide:lipase 320:1 (normalized to no inhibitor = 1.00)", "setting": "[5]", "result": 1.1}
    ]}
  ]
}
